The values that follow come from patent US20200353078A1 (AstraZeneca / MedImmune, published 2020).

Assay [1] concerns the target T1, Human ST2-Fc (R&D Systems, or source not stated in the example) (human, UniProt Q01638 19-328).
T1 construct: extracellular domain; also called sST2.Fc; sST2
T1 sequence (looked up): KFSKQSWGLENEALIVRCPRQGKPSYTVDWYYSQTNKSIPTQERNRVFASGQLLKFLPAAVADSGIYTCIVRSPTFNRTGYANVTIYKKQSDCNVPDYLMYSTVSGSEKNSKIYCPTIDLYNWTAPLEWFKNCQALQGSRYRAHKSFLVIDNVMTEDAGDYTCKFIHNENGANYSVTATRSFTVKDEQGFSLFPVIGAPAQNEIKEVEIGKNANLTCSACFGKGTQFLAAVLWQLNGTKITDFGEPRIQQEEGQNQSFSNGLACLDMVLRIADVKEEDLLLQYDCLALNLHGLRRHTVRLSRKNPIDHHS
Description: Biacore T100, ST2-Fc captured on Protein G', peptide as analyte. The source says:
The identified peptide together with a truncate ([…]) and scrambled variants of both, were then chemically synthesised and used in confirmatory T100 Biacore (GE Healthcare) binding studies. Protein G′ (Sigma Aldrich, P4689) was covalently coupled to the surface of a CM5 sensor chip (GE Healthcare) using standard amine coupling reagents according to manufacturer's instructions. The protein G′ surface was used to capture H338L293 or ST2-Fc via the Fc domain to provide a surface density of approximately 290 RU per cycle. IL33 peptides prepared in HBS-EP+ buffer, at a range of concentrations were passed over the sensor chip surface. The surface was regenerated using two 10 mM Glycine washes of pH 1.7 and pH 1.5 between each injection of antibody. The resulting sensorgrams were evaluated using Biacore T100 evaluation software 2.0.3 (GE Healthcare) and fitted to a 1:1 Langmuir binding model, to provide relative binding data.

Assay [2] addresses T2, His10/Avi Human IL33-01 (human).
T2 chain: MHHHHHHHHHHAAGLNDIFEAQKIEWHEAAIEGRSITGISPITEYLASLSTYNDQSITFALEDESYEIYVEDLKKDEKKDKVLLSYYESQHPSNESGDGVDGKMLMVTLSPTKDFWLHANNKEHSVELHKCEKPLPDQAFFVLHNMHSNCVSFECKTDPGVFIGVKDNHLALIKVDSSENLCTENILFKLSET
Briefly: cell-based or functional assay.

Assay [3] concerns the target T3, Human IL-33 Flag®His (human).
T3 construct: Mature IL-33 with C-terminal FLAG 10xHis tag, from E. coli; biotinylated via free cysteines where used biotinylated; also called Mature Human IL-33_FH; human IL-33 FH
T3 chain: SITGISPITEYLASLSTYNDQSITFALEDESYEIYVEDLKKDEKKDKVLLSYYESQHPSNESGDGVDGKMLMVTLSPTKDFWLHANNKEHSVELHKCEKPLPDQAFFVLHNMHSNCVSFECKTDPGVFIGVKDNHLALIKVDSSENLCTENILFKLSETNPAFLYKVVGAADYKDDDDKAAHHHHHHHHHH
Briefly: HTRF, test protein competing with biotinylated IL33-01 for DyLight650 labelled IgG. The method, then: (§1) Human, cyno and mouse IL-33 FLAG® His (described in Example 1 and Table 21), Human IL-1 alpha and IL-1 beta (R&D Systems) (Table 21) or rat IL-33 (GenScript) were tested for inhibition of human IL-33 binding to DyLight650 labelled 33_640087-7B or DyLight650 labelled 33_640237-2B by adding 5 microlitres of each dilution of sample to a 384 well low volume assay plate (Costar, 3673). […] This was followed by the addition of 2.5 microlitres of a solution containing 0.12 nM biotinylated human IL-33-01 combined with 0.75 nM streptavidin cryptate detection (Cisbio International, 610SAKLB). All dilutions were performed in assay buffer containing 0.8 M potassium fluoride (VWR, 26820.236) and 0.1% bovine serum albumin (BSA, PAA, K05-013) in Dulbeccos PBS (Invitrogen, 14190185). Assay plates were incubated for 4 hours at room temperature followed by 18 hours at 4 degrees Celsius and time resolved fluorescence was read at 620 nm and 665 nm emission wavelengths using an EnVision plate reader (Perkin Elmer). Data were analysed by calculating the 665/620 nm ratio followed by the % Delta F values for each sample. The 665/620 nm ratio was used to correct for sample interference using Equation 1. The % Delta F for each sample was then calculated using Equation 2. The negative control (non-specific binding) was defined by replacing biotinylated human IL-33 combined with streptavidin cryptate detection with streptavidin cryptate detection only. The % Delta F values were subsequently used to calculate % specific binding as described in Equation 3. IC₅₀ values were determined using GraphPad Prism software by curve fitting using a four-parameter logistic equation (Equation 4).
(TR-FRET usually uses a lanthanide donor and a delayed reading to cut background.)

Assay [4] has as its target T4, Cynomolgus IL-33 Flag®His (cynomolgus monkey).
T4 construct: C-terminal FLAG 10xHis tag, E. coli; also called Mature Cynomolugus IL-33; cyno IL-33 FH
T4 chain: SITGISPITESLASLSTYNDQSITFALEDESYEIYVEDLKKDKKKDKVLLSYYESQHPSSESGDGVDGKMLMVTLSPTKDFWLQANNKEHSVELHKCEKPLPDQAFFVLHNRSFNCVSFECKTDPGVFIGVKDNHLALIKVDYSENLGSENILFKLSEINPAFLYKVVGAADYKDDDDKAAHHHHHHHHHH
The description is as above. The method, then:
as §1

Assay [5] has as its target T5, Mouse IL-33 Flag®His (mouse).
T5 construct: C-terminal FLAG 10xHis tag, E. coli; also called Mature Mouse IL-33_FH; mouse IL-33 FH
T5 chain: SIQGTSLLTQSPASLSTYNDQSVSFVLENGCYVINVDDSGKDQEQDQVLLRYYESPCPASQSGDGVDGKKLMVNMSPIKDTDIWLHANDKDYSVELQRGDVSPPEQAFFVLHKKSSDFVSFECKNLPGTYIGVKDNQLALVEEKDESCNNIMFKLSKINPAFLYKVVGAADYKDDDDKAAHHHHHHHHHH
The description is as above. Here is the method: as §1

Assay [6] addresses T6, Human IL-1 alpha (R&D Systems) (human, UniProt P01583 113-271).
T6 sequence (looked up): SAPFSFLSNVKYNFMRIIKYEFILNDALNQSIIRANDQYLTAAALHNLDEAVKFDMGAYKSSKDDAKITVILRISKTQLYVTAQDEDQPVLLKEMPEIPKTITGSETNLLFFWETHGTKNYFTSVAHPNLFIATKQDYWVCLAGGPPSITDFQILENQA
Description: HTRF: unlabelled test protein competes with biotinylated human IL33-01 for DyLight650 labelled 33_640237-2B IgG. The gist of the method: (§2)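 HTRF competition: dilutions of unlabelled test protein competed with biotinylated human IL-33-01 (0.12 nM solution, with 0.75 nM streptavidin cryptate) for DyLight650-labelled 33_640087-7B or 33_640237-2B, in DPBS with 0.8 M KF and 0.1% BSA. Incubation was 4 h at RT, then 18 h at 4 °C. The 665/620 nm ratio gave % specific binding; IC50 by four-parameter fit.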

For assay [7], the target named is Human IL-1 beta (R&D Systems) (human, UniProt P01584 117-269). The assay is described as above. The gist of the method:
as §2

Assay [8] has as its target T7, Rat IL-33 (GenScript) (rat, UniProt Q66H70 109-264, limits assumed).
T7 sequence (looked up): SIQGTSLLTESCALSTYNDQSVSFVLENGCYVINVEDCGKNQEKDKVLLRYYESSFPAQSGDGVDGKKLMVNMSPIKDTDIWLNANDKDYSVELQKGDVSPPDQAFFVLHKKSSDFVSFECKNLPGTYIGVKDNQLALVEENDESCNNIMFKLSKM
Described as above. The gist of the method: as §2

Assay [9] deals with T3, Human IL-33 Flag®His. Description: phage ELISA. For orientation: In an ELISA, binding on a coated surface is turned into a signal by an enzyme label.
For assay [10], the target named is T4, Cynomolgus IL-33 Flag®His. Briefly: phage ELISA.
Assay [11] addresses T5, Mouse IL-33 Flag®His. Briefly: phage ELISA.

B1: IL-33 tryptic epitope peptide (full length synthetic epitope peptide) (peptide)
peptide: MLMVTLSPTKDFWLHANNKEHSVELHK
notes: Chemically synthesised; also called predicted tryptic IL-33 fragment
For B1, the binding result in assay [1] is reported as “no binding”.

B2: 33_640237-2B IgG1 (antibody, V domains shown)
VH: EVQLLESGGGLVQPGGSLRLSCAASGFTFSSYAMSWVRQAPGKGLEWVSGIADDFTSTYYADPVKGRFTISRDNSKNTLYLQMNSLRAEDTAVYYCARDLWMMNYAGGLRYPFGYWGQGTMVTVSS
VL: SYVLTQPPSVSVSPGQTASITCSGERMGDKYAAWYQQKPGQSPVLVIYRDTKRPSGIPERFSGSNSGNTATLTISGTQAMDEADYYCGVLKQDTGVFGGGTKLTVL
notes: IgG1
Regarding B2, the “IC50 (nM) vs. His Avi IL-33, Huvec IL-8 assay” value in [2] worked out at 0.067 nM. In addition, the binding result in assay [3] is recorded as “binds”; in [4], “binds”; in [5], “no binding”; in [6] it was “no binding (tested: about 10^-5.8 M)”; in assay [7], “no binding (tested: about 10^-5.8 M)”; in assay [8], “no binding (tested: about 10^-5.5 M)”.

B3: IL330180 scFv (scFv, V domains shown)
VH: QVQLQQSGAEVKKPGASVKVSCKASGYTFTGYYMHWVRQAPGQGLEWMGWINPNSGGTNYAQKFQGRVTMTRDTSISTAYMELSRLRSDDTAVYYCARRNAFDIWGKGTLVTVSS
VL: QPVLTQPPSVSEAPRQRVTISCSGSSSNIGNNAVNWYQQLPGTAPKLLIYRNNQRPSGVPDRFSGSKSGTSASLAISGLRSEDEADYYCAAWDDSLSGWVFGGGTKVNVL
For the molecule B3, the values for the binding result in assay [9], in [10] and in assay [11] were “binds”, “no binding” and “no binding”, respectively.
